Changes are numbered by the printed parent chain. Numbers in names are those of the source.
Target: CaM (endogenous calmodulin of Arabidopsis plants)

B1: DWF1(V531D), full length, expressed in planta from 35S::DWF1(V531D) (protein)
chain: MSDLQTPLVRPKRKKTWVDYFVKFRWIIVIFIVLPFSATFYFLIYLGDMWSESKSFEKRQKEHDENVKKVIKRLKGRDASKDGLVCTARKPWIAVGMRNVDYKRARHFEVDLGEFRNILEINKEKMTARVEPLVNMGQISRATVPMNLSLAVVAELDDLTVGGLINGYGIEGSSHIYGLFADTVEAYEIVLAGGELVRATRDNEYSDLYYAIPWSQGTLGLLVAAEIRLIKVKEYMRLTYIPVKGDLQALAQGYIDSFAPKDGDKSKIPDFVEGMVYNPTEGVMMVGTYASKEEAKKKGNKINNVGWWFKPWFYQHAQTALKKGQFVEYIPTREYYHRHTRCLYWEGKLILPFGDQFWFRYLLGWLMPPKVSLLKATQGEAIRNYYHDMHVIQDMLVPLYKVGDALEWVHREMEVYPIWLCPHKLFKQPIKGQIYPEPGFEYENRQGDTEDAQMYTDVGVYYAPGCVLRGEEFDGSEAVRRMEKWLIENHGFQPQYAVSELDEKSFWRMFNGELYEECRKKYRAIGTFMSDYYKSKKGRKTEKEVREAEQAHLETAYAEAD
**Q.** With B1 as the protein, how does the “complementation of the dwf1 null mutant (plant phenotype, height)” value read?
**A.** The value was “showed some degree of phenotype rescue, with round, expanded leaves but unextended petioles at the rosette stage and bushy flowering stems reaching up to 40% of the height of the wild-type plant”.

B2: DWF1(KYR521-523DGD), full length, expressed in planta from 35S::DWF1(KYR521-523DGD) (protein)
chain: B1 chain with K521D, Y522G, R523D, D531V
**Q.** For B2, which “complementation of the dwf1 null mutant (plant phenotype)” value is on record?
**A.** The value was “showed very slight phenotypic rescue”.

B3: DWF1(Δ518-539), full length, expressed in planta from 35S::DWF1(Δ518-539) (protein)
chain: MSDLQTPLVRPKRKKTWVDYFVKFRWIIVIFIVLPFSATFYFLIYLGDMWSESKSFEKRQKEHDENVKKVIKRLKGRDASKDGLVCTARKPWIAVGMRNVDYKRARHFEVDLGEFRNILEINKEKMTARVEPLVNMGQISRATVPMNLSLAVVAELDDLTVGGLINGYGIEGSSHIYGLFADTVEAYEIVLAGGELVRATRDNEYSDLYYAIPWSQGTLGLLVAAEIRLIKVKEYMRLTYIPVKGDLQALAQGYIDSFAPKDGDKSKIPDFVEGMVYNPTEGVMMVGTYASKEEAKKKGNKINNVGWWFKPWFYQHAQTALKKGQFVEYIPTREYYHRHTRCLYWEGKLILPFGDQFWFRYLLGWLMPPKVSLLKATQGEAIRNYYHDMHVIQDMLVPLYKVGDALEWVHREMEVYPIWLCPHKLFKQPIKGQIYPEPGFEYENRQGDTEDAQMYTDVGVYYAPGCVLRGEEFDGSEAVRRMEKWLIENHGFQPQYAVSELDEKSFWRMFNGELYEEKTEKEVREAEQAHLETAYAEAD
**Q.** B3 was tested. Which “complementation of the dwf1 null mutant (plant phenotype)” value did it give?
**A.** The value was “grew like the uncomplemented dwf1 mutants”.
